Literature values as cited in paper PMC4317646.

Target: ADP-G-actin (Saccharomyces cerevisiae) (UniProt P60010)

Sequence of C-Srv2 C-terminal half (P17555 253-526): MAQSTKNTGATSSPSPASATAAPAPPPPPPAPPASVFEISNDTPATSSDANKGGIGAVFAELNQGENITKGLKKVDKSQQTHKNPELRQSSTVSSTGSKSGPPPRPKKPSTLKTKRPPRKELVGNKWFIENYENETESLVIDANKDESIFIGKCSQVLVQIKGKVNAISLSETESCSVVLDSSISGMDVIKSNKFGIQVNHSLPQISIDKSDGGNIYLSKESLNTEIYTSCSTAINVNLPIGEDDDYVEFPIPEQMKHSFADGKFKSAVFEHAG

C-Srv2 C-terminal half (from UniProt P17555)
Kd: 18 nM
